We go through one substance from PMC9062740.

This assay has as its target taxol-stabilized microtubules polymerized from porcine brain tubulin (UniProt P02550). The assay can be described thus: MT-binding assay (cosedimentation). The note with it: 5 μM CG2 mutant, […] taxol–MTs; parent: est. 1.0; read off a plot.

Sequence of CLIP-170 CG2 fragment (206-288), P30622 H276A (P30622 206-288 H276A): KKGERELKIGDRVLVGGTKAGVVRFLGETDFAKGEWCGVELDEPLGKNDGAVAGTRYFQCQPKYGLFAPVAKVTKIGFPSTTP
Sequence of taxol-stabilized microtubules polymerized from porcine brain tubulin (P02550 whole entry, chain 1 of 2): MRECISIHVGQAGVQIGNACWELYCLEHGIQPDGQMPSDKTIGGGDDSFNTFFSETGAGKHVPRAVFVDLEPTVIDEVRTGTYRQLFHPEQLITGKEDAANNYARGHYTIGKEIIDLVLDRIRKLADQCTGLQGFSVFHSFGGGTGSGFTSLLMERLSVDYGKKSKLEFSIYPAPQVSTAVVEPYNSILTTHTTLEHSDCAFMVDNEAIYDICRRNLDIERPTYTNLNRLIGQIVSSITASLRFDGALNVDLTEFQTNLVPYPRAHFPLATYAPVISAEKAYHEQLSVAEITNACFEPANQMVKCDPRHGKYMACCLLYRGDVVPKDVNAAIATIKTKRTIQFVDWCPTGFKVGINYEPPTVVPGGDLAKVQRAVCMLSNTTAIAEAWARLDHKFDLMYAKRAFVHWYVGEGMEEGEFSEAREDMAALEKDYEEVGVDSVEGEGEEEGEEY
Sequence of taxol-stabilized microtubules polymerized from porcine brain tubulin (chain, as listed by the source, chain 2 of 2): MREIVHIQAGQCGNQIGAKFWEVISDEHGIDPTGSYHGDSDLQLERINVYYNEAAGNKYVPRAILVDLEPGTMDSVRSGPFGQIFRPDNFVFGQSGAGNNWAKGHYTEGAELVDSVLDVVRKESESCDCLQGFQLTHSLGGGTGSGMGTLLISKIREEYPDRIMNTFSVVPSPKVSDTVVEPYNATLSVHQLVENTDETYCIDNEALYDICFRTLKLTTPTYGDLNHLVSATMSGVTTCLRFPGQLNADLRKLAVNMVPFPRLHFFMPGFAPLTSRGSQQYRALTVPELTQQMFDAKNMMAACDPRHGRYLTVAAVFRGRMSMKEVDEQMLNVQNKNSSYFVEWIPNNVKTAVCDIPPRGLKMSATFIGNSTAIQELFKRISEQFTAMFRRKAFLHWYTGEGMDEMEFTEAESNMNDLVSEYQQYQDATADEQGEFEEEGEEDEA

With “CLIP-170 CG2 fragment (206-288), P30622 H276A”, the ratio to parent came out at 0.91.
